Results from patent US20110190483, “Stimulus-Responsive Apta Chelamers” (The Administrators of the Tulane Educational Fund, published 2011).

Assays:
Details in all cases: tags: Sigma Aldrich, from bovine pancreas; label: fluorescein on 5'-terminal dT; intramolecular antiparallel G4
trypsin [1] = target: T1, trypsin (Bos taurus, UniProt P00760 P00760:24-246); assay: FP; 25 mM KCl, 200 mM NaCl, 25 mM Hepes pH 7.4, 25 C; iodophenylthiourea arm only
Protocol: (§1) The preformed quadruplexes were then incubated with increasing concentrations of trypsin at 25° C. (25 mM KCl, 200 mM NaCl, 25 mM Hepes, pH 7.4) for 30 min. Preliminary fluorescence anisotropy studies were conducted to ascertain that equilibrium was reached after 30 min and that there was no significant quenching of the fluorescein emission. The anisotropy associated with the fluorescein emission was followed at 525 nm (excitation at 495 nm). The resultant binding isotherms (FIG. 14) were fitted using non-linear regression to a 1:1 binding stoichiometry. […] This dissociation constant is attributed to non-specific interactions between bovine trypsin and ODN 4, since trypsin (pI=10.5) is positively charged at pH=7.4 and thus can potentially associate with the negatively charged DNA backbone. Support for such non-specific interactions comes from incubation of trypsin with ODN 4 where the concentration of salts were decreased to only 5 mM KCl, 25 mM Hepes, pH 7.4 (see, e.g., FIG. 23).
(§2) Immediately prior to each fluorescence polarization experiment, fresh stock solutions of trypsin were made in Hepes buffer (20 mM KCl, 200 mM NaCl, 25 mM Hepes, pH 7.4). Concentration of the trypsin in the stock solutions were determined using ultra-violet absorbance at 280 nm (ε=37669 M⁻¹cm⁻¹).

trypsin [2] = target: T1, trypsin; assay: FP; 25 mM KCl, 200 mM NaCl, 25 mM Hepes pH 7.4, 25 C; benzamidine arm only
Protocol: as §1, §2

trypsin [3] = target: T1, trypsin; assay: FP; preformed quadruplex, 25 mM KCl (20 mM elsewhere), 200 mM NaCl, 25 mM Hepes pH 7.4, 25 C; binding through small-molecule arms
Protocol: as §1, §2

trypsin [4] = target: T1, trypsin; assay: FP; low salt: 5 mM KCl, 25 mM Hepes pH 7.4; +/-0.3e-6
Protocol: The results of FIG. 23 show fluorescence anisotropy titrations of AC 1 and negative control ODN 4 (2 nM), first exposed to quadruplex forming conditions followed by incubation with increasing concentrations of trypsin. These experiments were conducted under low-salt conditions (5 mM KCl, 25 mM Hepes, pH 7.4. The raw data is depicted by circles for AC 1 and diamonds (♦) for ODN 4. The lines represent non-linear fits to equation 2 (R²=0.99 for AC 1 and 0.98 for ODN 4).
These findings are consistent with the fact that bovine trypsin is positively charged at pH=7.4 (pI of bovine trypsin is=10.5) and thus can potentially associate with the negatively charged ODN backbone, through non-specific interactions, under low-salt conditions.

T1 sequence (P00760 24-246, one chain of several): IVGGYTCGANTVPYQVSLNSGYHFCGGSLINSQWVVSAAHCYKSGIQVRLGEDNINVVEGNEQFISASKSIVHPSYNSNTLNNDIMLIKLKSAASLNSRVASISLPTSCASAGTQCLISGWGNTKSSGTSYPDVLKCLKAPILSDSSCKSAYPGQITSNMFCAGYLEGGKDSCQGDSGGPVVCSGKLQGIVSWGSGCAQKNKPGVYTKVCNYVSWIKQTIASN

**Q.** For TTGGTTGGTGTGGTTGGT (structured_DNA, 3'-iodophenylthiourea arm via C6 spacer, no 5' arm) [ODN 3 (Formula 5)], which Kd (trypsin [1]) is on record?
**A.** 90 µM

**Q.** With TTGGTTGGTGTGGTTGGT (structured_DNA, 5'-benzamidine arm via C10 spacer, no 3' arm) [ODN 2 (Formula 4)] as the binder, how does the Kd (trypsin [2]) read?
**A.** 29 µM

**Q.** Which results are given for TTGGTTGGTGTGGTTGGT (structured_DNA, 5'-benzamidine arm via C10 spacer, 3'-iodophenylthiourea arm via C6 spacer) [AC 1 (ODN 1, Formula 3)]?
**A.** Kd (trypsin [3]): 0.81 µM; Kd (trypsin [4]): 2.8 µM
